Assays:
[1] = system: siRNA; assay: siRNA binding, electrophoresis gels; conditions: compared with P4
Text: (§1) FIGS. 1A-I. Nanoparticles of an engineered polypeptide carrying siRNA (A) C-terminus RNA binding motif CT-dsRBD (in yellow) excised from a canonical double stranded RNA binding domain (dsRBD) and fused to a self-assembly enhancer […] in order to obtain the engineered RNA binding polypeptide (P4) (B) electrophoresis gels of proteins binding siRNA (left). Plot of the bound siRNA (right). (C) Structural change of P4 and CT-dsRBD upon binding to siRNA determined by circular dichroism. (D) Increase in hydrodynamic size of P4 upon siRNA binding determined by DLS. (E) siRNA-P4 nanoparticles in solution imaged by cryo-TEM. Scale bar is 200 nm. […] (H) Salt stability of P4 nanoparticles. (I) Formation of siRNA-P4 nanoparticles in different buffers.
(§2) FIGS. 2A-J. Programmable protein for bioactive siRNA delivery nanoparticles. (A) P4 is functionalized with bioactive peptides, P4-RGD & P4-His6. […] (E) Ellipticity change in function of siRNA concentration (bottom scale) and P4-to-siRNA stoichiometry (top scale). (F) Hydrodynamic size and (G) Zeta potential of P4 nanoparticles. (H & I) Cryo-TEM and (j) AFM micrographs of siRNA-P4 nanoparticles.

[2] = system: siRNA; assay: Structural change upon siRNA binding, circular dichroism; type: physicochemical
Text: as §1, §2

[3] = system: siRNA; assay: Nanoparticle self-assembly upon siRNA binding (DLS, cryo-TEM); type: physicochemical
Text: as §1, §2

Substance | binding to siRNA / nucleic acid cargo [1] | Structural change triggered by siRNA binding [2] | self-assembly into nanoparticles upon binding to nucleic acid [3] | hydrodynamic size upon siRNA binding ([3]; determined by DLS)
P4-His6: P4 functionalized with bioactive peptide His6 (HHHHHHSIRKLEYEIEELRLRIGGGTFVETGSGTSKQVAKRVAAEKLLTKFKT) | bind to siRNA similarly as P4 | triggered by siRNA binding as in P4 |  | 
P4-RGD: P4 functionalized with bioactive peptide RGD (CRGDCSIRKLEYEIEELRLRIGGGTFVETGSGTSKQVAKRVAAEKLLTKFKT) | bind to siRNA similarly as P4 | triggered by siRNA binding as in P4 |  | 
P4: engineered RNA binding polypeptide: CT-dsRBD RNA binding motif fused to a self-assembly enhancer helix (SIRKLEYEIEELRLRIGGGTFVETGSGTSKQVAKRVAAEKLLTKFKT) |  |  | self-assembles into nanoparticles upon binding to siRNA | Increase
